Reference: article PMC2756588

T1: Abp1, P15891
T1 sequence (P15891 535-592, looked up): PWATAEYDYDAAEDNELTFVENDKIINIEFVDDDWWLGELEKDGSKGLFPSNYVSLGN

T2: Bbc1, P47068
T2 sequence (P47068 1-78, looked up): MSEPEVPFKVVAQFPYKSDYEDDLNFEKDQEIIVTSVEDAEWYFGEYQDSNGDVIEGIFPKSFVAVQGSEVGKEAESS

T3: Boi1, P38041
T3 sequence (P38041 1-86, looked up): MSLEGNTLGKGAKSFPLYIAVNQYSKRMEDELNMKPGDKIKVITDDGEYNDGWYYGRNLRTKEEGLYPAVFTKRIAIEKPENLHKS

T4: Boi2, P39969
T4 sequence (P39969 32-116, looked up): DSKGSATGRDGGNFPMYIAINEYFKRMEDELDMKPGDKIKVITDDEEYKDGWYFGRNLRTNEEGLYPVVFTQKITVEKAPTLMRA

T5: Bud14, P27637
T5 sequence (P27637 247-328, looked up): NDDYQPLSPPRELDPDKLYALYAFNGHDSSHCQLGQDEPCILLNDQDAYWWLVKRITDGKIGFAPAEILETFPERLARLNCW

T6: Bzz1-1, P38822
T6 sequence (P38822 478-572, looked up): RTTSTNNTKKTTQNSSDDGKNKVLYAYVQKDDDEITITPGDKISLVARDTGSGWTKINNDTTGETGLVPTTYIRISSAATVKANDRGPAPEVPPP

T7: Bzz1-2, P38822
T7 sequence (P38822 568-633, looked up): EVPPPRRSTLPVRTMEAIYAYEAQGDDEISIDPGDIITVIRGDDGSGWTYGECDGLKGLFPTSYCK

T8: Cdc25, P04821
T8 sequence (P04821 50-136, looked up): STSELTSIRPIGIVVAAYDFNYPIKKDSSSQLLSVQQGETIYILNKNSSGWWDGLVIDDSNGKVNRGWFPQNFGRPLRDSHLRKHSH

T9: Cyk3, Q07533
T9 sequence (Q07533 1-83, looked up): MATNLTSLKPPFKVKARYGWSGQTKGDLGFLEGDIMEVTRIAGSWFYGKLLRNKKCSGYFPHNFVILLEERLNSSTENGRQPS

T10: Fus1, P11710
T10 sequence (P11710 432-512, looked up): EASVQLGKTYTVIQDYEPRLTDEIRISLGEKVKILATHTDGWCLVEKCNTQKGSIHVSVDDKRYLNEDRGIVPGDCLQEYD

T11: Hof1, Q05080
T11 sequence (Q05080 590-669, looked up): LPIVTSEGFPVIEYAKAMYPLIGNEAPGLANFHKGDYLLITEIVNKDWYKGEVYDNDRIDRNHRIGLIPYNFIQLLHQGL

T12: Hse1, P38753
T12 sequence (P38753 208-285, looked up): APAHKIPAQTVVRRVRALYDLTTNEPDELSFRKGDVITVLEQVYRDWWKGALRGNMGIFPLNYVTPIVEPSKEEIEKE

T13: Lsb1, P53281
T13 sequence (P53281 45-122, looked up): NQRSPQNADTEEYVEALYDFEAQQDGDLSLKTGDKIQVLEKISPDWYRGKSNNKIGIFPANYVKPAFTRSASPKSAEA

T14: Lsb3, P43603
T14 sequence (P43603 385-451, looked up): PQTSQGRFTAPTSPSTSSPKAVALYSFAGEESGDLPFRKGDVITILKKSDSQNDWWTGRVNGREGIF

T15: Lsb4, P32793
T15 sequence (P32793 402-468, looked up): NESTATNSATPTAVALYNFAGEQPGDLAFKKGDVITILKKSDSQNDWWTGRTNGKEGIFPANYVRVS

T16: Myo5, Q04439
T16 sequence (Q04439 1072-1160, looked up): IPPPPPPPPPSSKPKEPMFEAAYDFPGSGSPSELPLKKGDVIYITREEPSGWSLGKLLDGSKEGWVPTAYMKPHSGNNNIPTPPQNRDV

T17: Nbp2, Q12163
T17 sequence (Q12163 103-180, looked up): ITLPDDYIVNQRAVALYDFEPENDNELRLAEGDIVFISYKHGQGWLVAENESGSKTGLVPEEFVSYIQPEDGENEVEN

T18: Pex13, P80667
T18 sequence (P80667 295-386, looked up): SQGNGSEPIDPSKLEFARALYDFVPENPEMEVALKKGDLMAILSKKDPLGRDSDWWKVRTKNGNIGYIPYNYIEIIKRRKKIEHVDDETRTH

T19: Pin3, Q06449
T19 sequence (Q06449 53-122, looked up): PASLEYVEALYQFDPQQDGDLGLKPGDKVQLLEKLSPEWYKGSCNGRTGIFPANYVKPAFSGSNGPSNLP

T20: Sla1-2, P32790
T20 sequence (P32790 60-140, looked up): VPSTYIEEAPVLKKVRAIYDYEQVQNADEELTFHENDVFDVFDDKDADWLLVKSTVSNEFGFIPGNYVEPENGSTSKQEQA

T21: Sla1-3, P32790
T21 sequence (P32790 344-424, looked up): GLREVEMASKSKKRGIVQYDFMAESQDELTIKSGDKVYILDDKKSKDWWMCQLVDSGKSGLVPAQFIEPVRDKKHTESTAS


What was measured:
Experiment in all cases: SPOT array
[1] = target: T1, Abp1, P15891; conditions: median of control spots 935
[2] = target: T2, Bbc1, P47068; conditions: median of control spots 796
[3] = target: Bem1-1, P29366; conditions: median of control spots 4282
Sequence of Bem1-1, P29366 (P29366 55-141): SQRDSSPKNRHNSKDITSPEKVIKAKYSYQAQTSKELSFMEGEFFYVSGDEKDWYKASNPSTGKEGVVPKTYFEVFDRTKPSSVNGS

[4] = target: Bem1-2, P29366; conditions: median of control spots 4347
Sequence of Bem1-2, P29366 (P29366 139-227): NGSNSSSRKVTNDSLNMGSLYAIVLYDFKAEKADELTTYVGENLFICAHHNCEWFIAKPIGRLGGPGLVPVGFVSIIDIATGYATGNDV

[5] = target: T3, Boi1, P38041; conditions: median of control spots 1162
[6] = target: T4, Boi2, P39969; conditions: median of control spots 1161
[7] = target: T5, Bud14, P27637; conditions: median of control spots 956
[8] = target: T6, Bzz1-1, P38822; conditions: median of control spots 4446
[9] = target: T7, Bzz1-2, P38822; conditions: median of control spots 4538
[10] = target: T8, Cdc25, P04821; conditions: median of control spots 969
[11] = target: T9, Cyk3, Q07533; conditions: median of control spots 1451
[12] = target: T10, Fus1, P11710; conditions: median of control spots 1200
[13] = target: GST; conditions: median of control spots 978
[14] = target: T11, Hof1, Q05080; conditions: median of control spots 4086
[15] = target: T12, Hse1, P38753; conditions: median of control spots 1727
[16] = target: T13, Lsb1, P53281; conditions: median of control spots 388
[17] = target: T14, Lsb3, P43603; conditions: median of control spots 406
[18] = target: T15, Lsb4, P32793; conditions: median of control spots 397
[19] = target: Myo3, P36006; conditions: median of control spots 468
[20] = target: T16, Myo5, Q04439; conditions: median of control spots 471
[21] = target: T17, Nbp2, Q12163; conditions: median of control spots 357
[22] = target: T18, Pex13, P80667; conditions: median of control spots 1341
[23] = target: T19, Pin3, Q06449; conditions: median of control spots 2171
[24] = target: Rvs167, P39743; conditions: median of control spots 2707
Sequence of Rvs167, P39743 (P39743 419-482): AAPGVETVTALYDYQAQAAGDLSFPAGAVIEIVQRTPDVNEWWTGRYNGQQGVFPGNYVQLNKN

[25] = target: Sho1, P40073; conditions: median of control spots 1148
Sequence of Sho1, P40073 (P40073 287-367): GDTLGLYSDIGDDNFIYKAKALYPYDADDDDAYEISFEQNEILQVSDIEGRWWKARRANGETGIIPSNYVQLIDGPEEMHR

[26] = target: T20, Sla1-2, P32790; conditions: median of control spots 712
[27] = target: T21, Sla1-3, P32790; conditions: median of control spots 5475

Row | Binder | SPOT intensity [1] | SPOT intensity [2] | SPOT intensity [3] | SPOT intensity [4] | SPOT intensity [5] | SPOT intensity [6] | SPOT intensity [7] | SPOT intensity [8] | SPOT intensity [9] | SPOT intensity [10] | SPOT intensity [11] | SPOT intensity [12] | SPOT intensity [13] | SPOT intensity [14] | SPOT intensity [15] | SPOT intensity [16] | SPOT intensity [17] | SPOT intensity [18] | SPOT intensity [19] | SPOT intensity [20] | further results
1 | NAGIRPKFILALNDE | 16 | 24 | 0 | 0 | 8 | 2 | 26 | 2 | 6 | 22 | 1 | 0 | 0 | 1 | 2 | 0 | 0 | 0 | 0 | 0 | SPOT intensity [21]: 2; SPOT intensity [22]: 10; SPOT intensity [23]: 3; SPOT intensity [24]: 4; SPOT intensity [25]: 31; SPOT intensity [26]: 1; SPOT intensity [27]: 2
2 | HHKRRPTTIDVPGLT | 26 | 2 | 22 | 28 | 2 | 1 | 8 | 0 | 13 | 42 | 0 | 180 | 0 | 6 | 3 | 1 | 3 | 5 | 7 | 4 | SPOT intensity [21]: 1; SPOT intensity [22]: 18; SPOT intensity [23]: 28; SPOT intensity [24]: 0; SPOT intensity [25]: 67; SPOT intensity [26]: 2; SPOT intensity [27]: 4
3 | GTIARPLFLVVLFFI | 0 | 0 | 0 | 1 | 4 | 1 | 8 | 0 | 0 | 18 | 1 | 9 | 1 | 0 | 0 | 0 | 0 | 0 | 1 | 0 | SPOT intensity [21]: 0; SPOT intensity [22]: 11; SPOT intensity [23]: 3; SPOT intensity [24]: 0; SPOT intensity [25]: 0; SPOT intensity [26]: 0; SPOT intensity [27]: 0
